Assay in all cases: ELISA
(An ELISA detects its analyte on a solid surface through an enzyme-linked reagent.)

In test [1] the target is HLA-DR (DRA1*01:01 / DRB1*03:01), soluble knob-into-hole Fc heterodimer (human).
Test [2] has as its target HLA-DR (DRA1*01:01 / DRB1*04:06), soluble knob-into-hole Fc heterodimer (human).
For test [3], the target named is HLA-DR (DRA1*01:01 / DRB1*01:02), soluble knob-into-hole Fc heterodimer (human).
For test [4], the target named is HLA-DR (DRA1*01:01 / DRB1*11:04), soluble knob-into-hole Fc heterodimer (human).
The target in test [5] is HLA-DR (DRA1*01:01 / DRB1*13:02), soluble knob-into-hole Fc heterodimer (human).
In test [6] the target is HLA-DR (DRA1*01:01 / DRB1*14:01), soluble knob-into-hole Fc heterodimer (human).
The target in test [7] is HLA-DR (DRA1*01:01 / DRB1*14:54), soluble knob-into-hole Fc heterodimer (human).
For test [8], the target named is HLA-DR (DRA1*01:01 / DRB1*16:02), soluble knob-into-hole Fc heterodimer (human).
Test [9] addresses HLA-DR (DRA1*01:01 / DRB1*11:01), soluble knob-into-hole Fc heterodimer (human).
The target of test [10] is HLA-DR (DRA1*01:01 / DRB1*09:01), soluble knob-into-hole Fc heterodimer (human).
Test [11] addresses HLA-DR (DRA1*01:01 / DRB1*15:03), soluble knob-into-hole Fc heterodimer (human).
For test [12], the target named is HLA-DR (DRA1*01:01 / DRB1*12:02), soluble knob-into-hole Fc heterodimer (human).
For test [13], the target named is HLA-DR (DRA1*01:01 / DRB1*04:07), soluble knob-into-hole Fc heterodimer (human).
For test [14], the target named is HLA-DR (DRA1*01:01 / DRB1*13:01), soluble knob-into-hole Fc heterodimer (human).
Test [15] deals with HLA-DR (DRA1*01:01 / DRB1*12:01), soluble knob-into-hole Fc heterodimer (human).
The target of test [16] is HLA-DR (DRA1*01:01 / DRB1*04:03), soluble knob-into-hole Fc heterodimer (human).
Test [17] addresses HLA-DR (DRA1*01:01 / DRB1*04:04), soluble knob-into-hole Fc heterodimer (human).
In test [18] the target is HLA-DR (DRA1*01:01 / DRB1*15:01), soluble knob-into-hole Fc heterodimer (human).
Test [19] deals with HLA-DR (DRA1*01:01 / DRB1*01:01), soluble knob-into-hole Fc heterodimer (human).
The target of test [20] is HLA-DR (DRA1*01:01 / DRB1*04:01), soluble knob-into-hole Fc heterodimer (human).
For test [21], the target named is HLA-DR (DRA1*01:01 / DRB1*04:05), soluble knob-into-hole Fc heterodimer (human).
The target in test [22] is HLA-DR (DRA1*01:01 / DRB1*15:02), soluble knob-into-hole Fc heterodimer (human).
The target of test [23] is HLA-DR (DRA1*01:01 / DRB1*10:01), soluble knob-into-hole Fc heterodimer (human).
The target in test [24] is HLA-DR (DRA1*01:01 / DRB1*07:01), soluble knob-into-hole Fc heterodimer (human).

As for KPVSKMRMATPLLMQALPM [human CLIP peptide, unlabelled competitor], the Ki (usually the dissociation constant of the complex between target and ligand, obtained from inhibition or displacement) in test [1] turned out to be 23.9 nM; in [2], 8.27 nM; in test [3], 5.52 nM; in [4] it was 2.92 nM; in test [5], 4470 nM; in test [6], 67 nM. The Ki amounted to 9.1 nM in [7]; 47 nM in test [8]; 25.8 nM in test [9]; 11 nM in test [10]; 11.1 nM in [11]; 3.68 nM in test [12]. The Ki in [13] stood at 5.25 nM; in test [14], 350 nM; in test [15], 37.8 nM; in test [16], 5.96 nM; in [17], 7.75 nM; in [18], 6.31 nM. For the same molecule, the Ki in [19] was determined as 6.04 nM; in [20] it was 6.46 nM; in test [21], 41.9 nM; in test [22] it was 23.1 nM; in test [23], 13.3 nM; in [24], 6.87 nM.

The values are drawn from article doi:10.1101/2025.06.05.658000 (2025).
